# Source: the supplement of paper PMC10201428
# ± gives the standard deviation of the averaged measurements.
# Key:
# [1] = tested on: VchCAST RNA-guided transposition machinery (E. coli BL21(DE3) host, lacZ target); test: relative integration efficiency (T-LR orientation) vs wild-type transposon end (log2 (normalized fold change)); transposon end mutated: right end (5 bp flank + 75 bp right end); higher = more efficient transposition
# How it was run: (§1)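 Relative integration efficiency is a fold change of output over input barcode abundance, normalised to reference barcodes and log-transformed. Input plasmids and genomic integration junctions were PCR-amplified and Illumina-sequenced from E. coli BL21(DE3) co-transformed with a T7-driven effector plasmid and pUC57 donor pools of 1549 left-end or 1849 right-end transposon variants. Plating was done with 0.1 mM IPTG at 37°C for 18 h, with two biological output replicates and four reference barcodes.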
# [2] = tested on: VchCAST RNA-guided transposition machinery (E. coli BL21(DE3) host, lacZ target); test: relative integration efficiency (T-RL orientation) vs wild-type transposon end (log2 (normalized fold change)); transposon end mutated: right end (5 bp flank + 75 bp right end); higher = more efficient transposition
# How it was run: as §1
Sequence,relative integration efficiency (log2) [1],relative integration efficiency (log2) [2]
ACATTTGTTGATACAACCATAAAATGATAATTAATAATTCACCCATAAATTGATAATTATCAACAAACGCCCGGTCGCGGTACTCTGATCATAGTCAGACCAACATTGCTACGACCCGTATTCGCAC,1.02 ± 0.13,-1.96 ± 0.21
ACATTTGTTGATACAACCATAAAATGATAATTAATAATTCACCCATAAATTGATAATTATCACACCCATAAATTGATATTGCCTCTGATCATAGTCAGACCAACATTGCTACGACCCGTATTCGCAC,1.16 ± 0.069,-2.69 ± 0.18
ACATTTGTTGATACAACCATAAAATGATAATTAATACACCCATAAATTGATAATTATCAACAAACGCCCGGTCGCGGTACTCTGATCATAGTCAGACCAACATTGCTACGACCCGTATTCGCACCGA,0.59376 ± 0.00039,-2.6 ± 0.28
ACATTTGTTGATACAACCATAAAATGATAATTAATACACCCATAAATTGATAATTATCACACCCATAAATTGATATTGCCTCTGATCATAGTCAGACCAACATTGCTACGACCCGTATTCGCACCGA,-0.393 ± 0.24,-3.47 ± 0.4
ACATTTGTTGATACAACCATAAAATGATAATTAATCACCCATAAATTGATAATTATCAACAAACGCCCGGTCGCGGTACTCTGATCATAGTCAGACCAACATTGCTACGACCCGTATTCGCACCGAC,1.09 ± 0.077,-1.83 ± 0.42
ACATTTGTTGATACAACCATAAAATGATAATTAATCACCCATAAATTGATAATTATCACACCCATAAATTGATATTGCCTCTGATCATAGTCAGACCAACATTGCTACGACCCGTATTCGCACCGAC,-0.602 ± 0.3,-1.92 ± 0.059
ACATTTGTTGATACAACCATAAAATGATAATTACAAAACGCCCGGTCGCCGGCGACACAAACGCCCGGTCGCGGTAAGAGGATCATAGTCAGACCAACATTGCTACGACCCGTATTCGCACCGACAC,1.07 ± 0.12,-2.05 ± 0.22
ACATTTGTTGATACAACCATAAAATGATAATTACAAAACTAAATTGATAATTATCACACCCATAAATTGATATTGCCTCTGATCATAGTCAGACCAACATTGCTACGACCCGTATTCGCACCGACAC,-2.92 ± 0.79,-2.29 ± 0.15
ACATTTGTTGATACAACCATAAAATGATAATTACAAACATAAATTGATAATTATCACACCCATAAATTGATATTGCCTCTGATCATAGTCAGACCAACATTGCTACGACCCGTATTCGCACCGACAC,-0.426 ± 0.17,-0.0203 ± 0.014
ACATTTGTTGATACAACCATAAAATGATAATTACAACCATAAAATGATAATTATCACAACCATAAAATGATAATTACTCTGATCATAGTCAGACCAACATTGCTACGACCCGTATTCGCACCGACAC,-0.536 ± 0.21,-0.193 ± 0.0064
ACATTTGTTGATACAACCATAAAATGATAATTACAACCATAAAATGATAATTATCACAACCATAAAGTGATATTTACTCTGATCATAGTCAGACCAACATTGCTACGACCCGTATTCGCACCGACAC,-0.296 ± 0.44,-0.175 ± 0.14
ACATTTGTTGATACAACCATAAAATGATAATTACAACCATAAAATGATAATTATCACAACCATAAGTTGATATTTTCTCTGATCATAGTCAGACCAACATTGCTACGACCCGTATTCGCACCGACAC,-0.17 ± 0.32,-0.0104 ± 0.27
ACATTTGTTGATACAACCATAAAATGATAATTACAACCATAAAATGATAATTATCACAACCATATATTGATATCTCCTCTGATCATAGTCAGACCAACATTGCTACGACCCGTATTCGCACCGACAC,0.049 ± 0.22,-0.16 ± 0.32
ACATTTGTTGATACAACCATAAAATGATAATTACAACCATAAAATGATAATTATCACACCCATAAATTGATAATTACTCTGATCATAGTCAGACCAACATTGCTACGACCCGTATTCGCACCGACAC,-0.0822 ± 0.2,0.0421 ± 0.03
ACATTTGTTGATACAACCATAAAATGATAATTACAACCATAAAATGATAATTATCACACCCATAAATTGATATTGCCTCTGATCATAGTCAGACCAACATTGCTACGACCCGTATTCGCACCGACAC,-0.38 ± 0.42,-0.0716 ± 0.12
ACATTTGTTGATACAACCATAAAATGATAATTACAACCATAAAATGATAATTATCAGTGGGTATTTAACTATAACGCTCTGATCATAGTCAGACCAACATTGCTACGACCCGTATTCGCACCGACAC,2.54 ± 0.061,-0.267 ± 0.21
ACATTTGTTGATACAACCATAAAATGATAATTACAACCATAAAATGATAATTATCATAATTATCATTTTATGGTTGCTCTGATCATAGTCAGACCAACATTGCTACGACCCGTATTCGCACCGACAC,1.96 ± 0.16,0.241 ± 0.067
ACATTTGTTGATACAACCATAAAATGATAATTACAACCATAAAATGATAATTATGATAATTATCATTTTATGGTTGCTCTGATCATAGTCAGACCAACATTGCTACGACCCGTATTCGCACCGACAC,1.99 ± 0.068,0.301 ± 0.039
